Sequences and labels used below:
B2: human ZNRF3 (residues 56-267, ECD-TMD) (domain or fragment, UniProt Q9ULT6 56-267, looked up)
chain: KETAFVEVVLFESSPSGDYTTYTTGLTGRFSRAGATLSAEGEIVQMHPLGLCNNNDEEDLYEYGWVGVVKLEQPELDPKPCLTVLGKAKRAVQRGATAVIFDVSENPEAIDQLNQGSEDPLKRPVVYVKGADAIKLMNIVNKQKVARARIQHRPPRQPTEYFDMGIFLAFFVVVSLVCLILLVKIKLKQRRSQNSMNRLAVQALEKMETRKF
notes: human ZNRF3, residues 56-267 (ECD-TMD), UniProt Q9ULT6; Cloned with the rabbit immunoglobulin heavy chain V signal peptide at the N-terminus in place of its own; no tag is named for this construct; also called Zinc and Ring Finger 3

The target of data set [1] is human ZNRF3 (residues 56-267, ECD-TMD) (human) (UniProt Q9ULT6).
The target of data set [2] is T1, human LGR4 (residues 1-822), ECD and TMD, expressed in ExpiSf9 cells (human, UniProt Q9BXB1 25-822).
T1 construct: signal peptide in the construct; human LGR4, residues 1-822 (ECD and TMD, without the ICD), UniProt Q9BXB1; no cleavage is described; also called Leucine-rich repeat-containing G protein-coupled receptor 4; apo LGR4; source: ExpiSf9 (baculovirus), membrane fraction solubilised in LMNG/CHS, purified (Ni-NTA, SEC)
As to the kind of experiment: cryo-EM structure; individually purified LGR4 and RSPO2 mixed at a 1:2 ratio for 3 hours at 4 °C, complex isolated by SEC (25 mM HEPES-NaOH pH 7.5, 0.15 M NaCl, 0.01% GDN); overall resolution 4.0 Å. To be noted: both partners purified. (In general: In gel filtration, larger molecules generally elute earlier.)

For data set [3], the target named is B2. The data set can be described thus: cryo-EM structure; LGR4, RSPO2 and ZNRF3 co-expressed in Expi293F, complex solubilised in LMNG/CHS and purified by anti-DYKDDDDK resin (FLAG on LGR4) and SEC in 0.01% GDN; two complexes in one sample, 1:1:2 (3.2 Å) and 2:2:2 (3.5 Å). To be noted: both partners purified.
Data set [4] concerns the molecule itself. The description is as above.
The target of data set [5] is T2, human LGR4 (residues 1-822), ECD and TMD, expressed in Expi293F cells (human, UniProt Q9BXB1 25-822).
T2 construct: signal peptide in the construct; human LGR4, residues 1-822 (ECD and TMD), UniProt Q9BXB1; no cleavage is described. pEZT-BM vector; not shown: FLAG, C-terminal, kept
Described as above. To be noted: both partners purified.

“full-length human LGR4 (CD4 TMD): TMD (7-TM, aa526-822) replaced with that of CD4 (1-TM) (from UniProt Q9BXB1 25-525; Q9BXB1 823-951) (receptor)”: the RSPO2-induced TOPFlash Wnt/β-catenin reporter activity in HEK293T cells (siRNA against LGR4 and LGR5; 5% Wnt3a-conditioned medium, 3 ng/mL RSPO2), against wild-type LGR4 in data set [1] stood at 50 % reduction.

B1: human RSPO2 (residues 20-143, Fu1-2 domains) (ligand, UniProt Q6UXX9 20-143, looked up)
chain: HCQGNRWRRSKRASYVSNPICKGCLSCSKDNGCSRCQQKLFFFLRREGMRQYGECLHSCPSGYYGHRAPDMNRCARCRIENCDSCFSKDFCTKCKVGFYLHRGRCFDECPDGFAPLEETMECVE
notes: human RSPO2, Fu1-2 domains, UniProt Q6UXX9; no cleavage is described; Codon-optimised synthetic DNA in pEZT-BM; also called R-spondin 2; source: Expi293F, secreted into the medium, purified (Ni-NTA, SEC); also co-transfected in Expi293F with LGR4 and ZNRF3 and co-purified with them
In the case of B1, the “stoichiometry N” value in data set [2] was 1. Moreover, the binding result in data set [3] is reported as “binds”. Take B2: the “stoichiometry N” value in data set [4] is 2. In data set [5], the binding result was “binds”.

As usually defined, the stoichiometry N is the number of molecules, sites or subunits per partner or assembly.
